Measured values reported in publication doi:10.1101/2020.10.06.328112.
Like-named read-outs stand apart in the source and are kept apart here.

How the values were obtained:
[1] = target: Recombinant human cyclophilin A (human) (UniProt P62937); experiment: native MS
[2] = target: Recombinant human cyclophilin A (human) (UniProt P62937); experiment: native MS; remark: listed apart in the source

Recombinant human cyclophilin A (from UniProt P62937 1-165) (enzyme)
stoichiometry N [1]: 2 | stoichiometry N [2]: 2
